Drawing on US20120094935A1, this text covers shape complementarity index SC, buried surface area contributed by 2L and total buried surface area for one substance.

Test [1] deals with N-terminally His-tagged form of human TNFα (residues 6-157, numbered as in PDB entry 1TNF), soluble TNFα trimer (human) (UniProt P01375). The experiment in a line: crystal structure, SC program in CCP4.
For test [2] the target is unchanged. The experiment in a line: crystal structure, AREAIMOL with 1.4 Å probe.

UniProt P01375, sequence (P01375 other isoform, or with tags, fused parts or gaps limits assumed): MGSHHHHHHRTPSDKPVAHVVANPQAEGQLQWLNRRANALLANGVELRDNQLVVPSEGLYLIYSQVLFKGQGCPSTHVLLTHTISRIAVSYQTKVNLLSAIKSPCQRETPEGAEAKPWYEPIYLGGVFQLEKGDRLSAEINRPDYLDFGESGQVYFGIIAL

“C-terminally His-tagged version of Yaba-like disease virus (YLDV) 2L lacking six C-terminal residues”: in test [1], the shape complementarity index SC was determined as 0.72. In test [2], this substance registered a buried surface area contributed by 2L of 1030 Å^2 and a total buried surface area at the 2L-TNFα interface of 2060 Å^2.
